Experimental data reported in patent US20040156851A1, “HMGB1 combination therapies” (Critical Therapeutics, Inc., priority 2002, published 2004).

B1: HMGB1: Recombinant full length human HMGB1, GST fusion system, SEQ ID NO:18; recombinant rat HMGB1 used in some experiments (protein, listed as Homo sapiens)
chain: MGKGDPKKPTGKMSSYAFFVQTCREEHKKKHPDASVNFSEFSKKCSERWKTMSAKEKGKFEDMAKADKARYEREMKTYIPPKGETKKKFKDPNAPKRLPSAFFLFCSEYRPKIKGEHPGLSIGDVAKKLGEMWNNTAADDKQPYEKKAAKLKEKYEKDIAAYRAKGKPDAAKKGVVKAEKSKKKKEEEEDEEDEEDEEEEEDEEDEEDEEEDDDDE
B2: A box: Human HMGB1 mutant containing only the A box, SEQ ID NO:21 (A box SEQ ID NO:22) (protein, listed as Homo sapiens)
chain: MGKGDPKKPTGKMSSYAFFVQTCREEHKKKHPDASVNFSEFSKKCSERWKTMSAKEKGKFEDMAKADKARYEREMKTYIPPKGET

Experiments:
RAW 264.7 cells = assay: 125I-HMGB1 cell surface binding to RAW 264.7 cells; set-up: species or system murine; settings: 4° C., specific binding (FIG. 5A)
Protocol: Purified HMGB1 protein (10 μg) was radiolabeled with 0.2 mCi of carrier-free ^125I (NEN Life Science Products Inc., Boston, Mass.) using Iodo-beads (Pierce, Rockford, Ill.) according to the manufacturer's instructions. ^125I-HMGB1 protein was separated from un-reacted ^125I by gel chromatography columns (P6 Micro Bio-Spin Chromatography Columns, Bio-Rad Laboratories, Hercules, Calif.) previously equilibrated with 300 mM sodium chloride, 17.5 mM sodium citrate, pH 7.0, and 0.1% bovine serum albumin (BSA). The specific activity of the eluted HMGB1 was about 2.8×10^6 cpm/μg protein. Cell surface binding studies were performed as previously described (Yang et al., Am. J. Physiol. 275:C675-C683, 1998). […] The radioactivity in the lysate was then measured using a gamma counter. Specific binding was determined as total binding minus the radioactivity obtained in the presence of an excess amount of unlabeled HMGB1 or A box proteins.
To determine whether the HMGB1 A box acts as an antagonist by displacing HMGB1 binding, ^125I-labeled —HMGB1 was added to macrophage cultures and binding was measured at 4° C. after 2 hours. Binding assays in RAW 264.7 cells were performed as described herein. ^125I-HMGB1 binding was measured in RAW 264.7 cells plated in 24-well dishes for the times indicated in FIG. 5A. […] The specificity of binding was assessed as described in Example 1. […]

[1] = test system: HMGB1 induced TNF release; assay: A box inhibition of HMGB1 induced TNF release from RAW 264.7 cells; type: cell-based, murine; settings: co-addition with HMGB1, 16 hours, TNF ELISA (FIG. 4B)
Protocol: Weak agonists are by definition antagonists. […] This study was carried out as follows. Sub-confluent RAW 264.7 cells in 24-well dishes were treated with HMGB1 (1 μg/ml) and 0, 5, 10, or 25 μg/ml of A box for 16 hours in Opti-MEM I medium in the presence of polymyxin B (100 units/ml). The TNF-stimulating activity (assayed using the L929 cytotoxicity assay described herein) in the sample receiving no A box was expressed as 100%, and the inhibition by A box was expressed as percent of HMGB1 alone. […] Data in FIG. 4A are presented as mean±SD (n=2-3 independent experiments).
Antagonism of full length HMGB1 activity by HMGB1 A box or GST tag (vector control) was also determined by measuring TNF release from RAW 264.7 macrophage cultures stimulated by co-addition of A box with full length HMGB1. RAW 264.7 macrophage cells (ATCC) were seeded into 24-well tissue culture plates and used at 90% confluence. The cells were treated with HMGB1, and/or A boxes as indicated for 16 hours in Optimum I medium (Life Technologies, Grand Island, N.Y.) in the presence of polymyxin B (100 units/ml, Sigma, St. Louis, Mo.) and supernatants were collected for TNF measurement (mouse ELISA kit from R&D System Inc, Minneapolis, Minn.). TNF-inducing activity was expressed as a percentage of the activity achieved with HMGB1 alone. […]

[2] = test system: Balb/c mice subjected to CLP; assay: Cecal ligation and puncture (CLP) sepsis, survival of Balb/c mice; type: in vivo
Protocol: Cecal ligation and puncture (CLP) was performed as described previously (Fink and Heard, J. Surg. Res. 49:186-196, 1990; Wichmann et al., Crit. Care Med. 26:2078-2086, 1998; and Remick et al., Shock 4:89-95, 1995). Briefly, Balb/c mice were anesthetized with 75 mg/kg ketamine (Fort Dodge, Fort Dodge, Iowa) and 20 mg/kg of xylazine (Bohringer Ingelheim, St. Joseph, Mo.) intramuscularly. A midline incision was performed, and the cecum was isolated. A 6-0 prolene suture ligature was placed at a level 5.0 mm from the cecal tip away from the ileocecal valve.
The ligated cecal stump was then punctured once with a 22-gauge needle, without direct extrusion of stool. The cecum was then placed back into its normal intra-abdominal position. […] Mortality was recorded for up to 1 week after the procedure; survivors were followed for 2 weeks to ensure no late mortalities had occurred.
To determine whether the HMGB1 A box can inhibit the lethality of HMGB1 during sepsis, mice were subjected to cecal perforation and treated by administration of A box beginning 24 hours after the onset of sepsis. […] Survival was monitored twice daily for up to 2 weeks to ensure no late death occurred. […]
Passive immunization of critically ill septic mice with anti-HMGB1 antibodies was also assessed. […] Survival was monitored for 2 weeks. […]

Molecule | 125I-HMGB1 binding over time (RAW 264.7 cells) | effect on TNF stimulating activity of full length HMGB1 [1] | outcome of animals ([2]; 60 μg/mouse) | clinical behaviour of animals ([2]; 600 μg/mouse, vs vector controls or 60 μg)
B1 | saturable first order binding kinetics |  |  | 
B2 |  | significantly attenuated the TNF stimulating activity of full length HMGB1 | most died | significantly more alert, active, and to resume feeding behavior
